According to US20180002381A1:

Key:
[1] = target: Coiled coil domain of Atg4L (Atg14L coiled coil) (Mus musculus (Mouse)) (UniProt Q8CDJ3); test: ITC
[2] = target: Coiled coil domain of UVRAG (228-276) (Mus musculus) (UniProt Q8K245); test: ITC
Sequence of Coiled coil domain of UVRAG (228-276) (Mus musculus) (Q8K245 other isoform, or with tags, fused parts or gaps limits assumed): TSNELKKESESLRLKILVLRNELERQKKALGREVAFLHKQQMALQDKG

Sequence of Coiled coil domain of Atg4L (Atg14L coiled coil) (Mus musculus (Mouse)) (Q8CDJ3 other isoform, or with tags, fused parts or gaps limits assumed): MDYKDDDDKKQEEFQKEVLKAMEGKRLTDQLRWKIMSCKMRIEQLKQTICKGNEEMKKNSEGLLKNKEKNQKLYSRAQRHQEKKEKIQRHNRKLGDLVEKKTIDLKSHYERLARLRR

Beclin1 mutant L241E/L245E (from UniProt Q91XJ1 174-266)
Kd [1]: 500 nM
Kd [2]: 10 nM
fold stronger than wild-type Beclin1 [2]: 20 times
